Experimental data from US12269859B2, “Synthetic immune receptors and methods of use thereof” (Angeles Therapeutics, Inc., priority 2016, dated 2025).

System: target antigen-expressing cell line
Assay: Jurkat NFAT-GFP assay, coculture with target cell lines expressing the respective target antigen (summary Table 10A)
Format: cell-based, human
Set-up: key: The signs +/−, +, 2+ etc. after the name of the cell lines indicate the relative degree of positivity on the Jurkat-NFAT-GFP assay as measured by the % GFP positive cells; +: relative degree of positivity on the Jurkat-NFAT-GFP assay as measured by the % GFP positive cells; 2+: relative degree of positivity on the Jurkat-NFAT-GFP assay as measured by the % GFP positive cells
Procedure, shortened: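 Jurkat cells carrying an NFAT-site IL-2 promoter driving GFP were lentivirally transduced with SIRs, puromycin-selected, then cocultured with antigen-expressing target cells at E:T about 1:2 for about 4–18 hours. GFP induction was read by flow cytometry as % GFP-positive cells versus parental Jurkat-NFAT-GFP.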

Molecule | NFAT-GFP ASSAY Positive Cell lines (coculture with L363 cells) | NFAT-GFP ASSAY Positive Cell lines (coculture with U266 cells)
031517-Q04 (protein) MALPVTALLLPLALLLHAARPLEGKPIPNPLLGLDSTGSGEDLKNVFPPEVAVFEPSKAEIAHTQKATLVCLATGFYPDHVELSWWVNGKEVHSGVCTDPQPLKEQPALNDSRYCLSSRLRVSATFWQNPRNHFRCQVQFYGLSENDEWTQDRAKPVTQIVSAEAWGRADCGITSASYHQGVLSATILYEILLGKATLYAVLVSALVLMAMVKRKDSRGRAKRSGSGATNFSLLKQAGDVEENPGPTSMALPVTALLLPLALLLHAARPQSVVTQPASVSGSPGQSITISCTGTSSDVGGYNYVSWYQQHPGKAPKLMIYDVSKRPSGVSNRFSGSKSGNTASLTISGLQAEDEADYYCSSYTSSSTLVFGGGTKLTVLGGGGGSGGGGSGGGGSEVQLVESGGAFVQPGGSLRLSCAASGFTFSSYAMTWVRQAPGKGLEWVSTISGRGRSTFYADSVKGRFTISRDNSKNTLYLQMNSLRAEDTAVYYCARYYHAGAFDLWGQGTLVTVSSTREQKLISEEDGSGIQNPDPAVYQLRDSKSSDKSVCLFTDFDSQTNVSQSKDSDVYITDKCVLDMRSMDFKSNSAVAWSNKSDFACANAFNNSIIPEDTFFPSSDVPCDVKLVEKSFETDTNLNFQNLSVIGFRILLLKVAGFNLLMTLRLWSSRAKRSGSGVKQTLNFDLLKLAGDVESNPGPSRGHMTEYKPTVRLATRDDVPRAVRTLAAAFADYPATRHTVDPDRHIERVTELQELFLTRVGLDIGKVWVADDGAAVAVWTTPESVEAGAVFAEIGPRMAELSGSRLAAQQQMEGLLAPHRPKEPAWFLATVGVSPDHQGKGLGSAVVLPGVEAAERAGVPAFLETSAPRNLPFYERLGFTVTADVEVPEGPRTWCMTRKPGA | L363 (+/−) | 
060717-L04 (protein) MALPVTALLLPLALLLHAARPQSVVTQPASVSGSPGQSITISCTGTSSDVGGYNYVSWYQQHPGKAPKLMIYDVSKRPSGVSNRFSGSKSGNTASLTISGLQAEDEADYYCSSYTSSSTLVFGGGTKLTVLGLEIQNPDPAVYQLRDSKSSDKSVCLFTDFDSQTNVSQSKDSDVYITDKCVLDMRSMDFKSNSAVAWSNKSDFACANAFNNSIIPEDTFFPSSDVPCDVKLVEKSFETDTNLNFQNLSVIGFRILLLKVAGFNLLMTLRLWSSRAKRSGSGVKQTLNFDLLKLAGDVESNPGPTSMDWIWRILFLVGAATGAHSFEEVQLVESGGAFVQPGGSLRLSCAASGFTFSSYAMTWVRQAPGKGLEWVSTISGRGRSTFYADSVKGRFTISRDNSKNTLYLQMNSLRAEDTAVYYCARYYHAGAFDLWGQGTLVTVSSTREDLKNVFPPEVAVFEPSKAEIAHTQKATLVCLATGFYPDHVELSWWVNGKEVHSGVCTDPQPLKEQPALNDSRYCLSSRLRVSATFWQNPRNHFRCQVQFYGLSENDEWTQDRAKPVTQIVSAEAWGRADCGITSASYHQGVLSATILYEILLGKATLYAVLVSALVLMAMVKRKDSRGRAKRSGSGATNFSLLKQAGDVEENPGPSRGHMTEYKPTVRLATRDDVPRAVRTLAAAFADYPATRHTVDPDRHIERVTELQELFLTRVGLDIGKVWVADDGAAVAVWTTPESVEAGAVFAEIGPRMAELSGSRLAAQQQMEGLLAPHRPKEPAWFLATVGVSPDHQGKGLGSAVVLPGVEAAERAGVPAFLETSAPRNLPFYERLGFTVTADVEVPEGPRTWCMTRKPGA | 2+ | +
